These results are taken from the supplement of paper PMC9112550, “Optimization of the antimicrobial peptide Bac7 by deep mutational scanning” (BMC Biology, 2022).

The series relates to Escherichia coli TOP10. Description: shrunken log2 fold change of peptide-encoding DNA abundance (4.5 h post-induction vs induction); higher = less antimicrobial activity (less host growth inhibition). The conditions noted are these: time post-induction: 4.5 h; library: site-saturation at positions 5, 18, 19, 20.
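Further: peptides expressed intracellularly from a pBAD plasmid library in pooled LB shake-flask culture, induced with 0.3% L-arabinose, DNA abundance read by NGS, three biological replicates, DESeq2 with apeglm shrinkage.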

In the case of RRIRGRPPRLPRPRPRPCINPRP, the “shrunken log2 fold change” value was determined as 0.573.

Consider RRIRLRPPRLPRPRPRPTENPRP, for which the “shrunken log2 fold change” value was -0.171.

With RRIRIRPPRLPRPRPRPHVDPRP, the “shrunken log2 fold change” value was -0.294. In the case of RRIRTRPPRLPRPRPRPHKKPRP, the “shrunken log2 fold change” value came to 0.0809. In the case of RRIRRRPPRLPRPRPRPMYVPRP, the “shrunken log2 fold change” value is -0.203.

Regarding RRIRPRPPRLPRPRPRPVPGPRP, the “shrunken log2 fold change” value came to 0.202. Regarding RRIRHRPPRLPRPRPRPQEWPRP, the “shrunken log2 fold change” value was -0.119. In the case of RRIRTRPPRLPRPRPRPEALPRP, the “shrunken log2 fold change” value amounted to 0.0496. Turning to RRIRERPPRLPRPRPRPCTEPRP, the “shrunken log2 fold change” value is -0.196. Take RRIRRRPPRLPRPRPRPMLKPRP: the “shrunken log2 fold change” value turned out to be 0.0333. The figure for RRIRKRPPRLPRPRPRPFYRPRP is 0.0824; for RRIRRRPPRLPRPRPRPQKGPRP it is -0.138.

Regarding RRIRNRPPRLPRPRPRPARTPRP, the “shrunken log2 fold change” value came out at 0.139. Take RRIRMRPPRLPRPRPRPMDPPRP: the “shrunken log2 fold change” value was found to be 0.038. The figure for RRIRRRPPRLPRPRPRPQAYPRP is 0.0231; for RRIRERPPRLPRPRPRPLMYPRP it is -0.0754. The figure for RRIRHRPPRLPRPRPRPDSYPRP is -0.0167. The figure for RRIRRRPPRLPRPRPRPWICPRP is -0.0987; for RRIRHRPPRLPRPRPRPTWFPRP it is 0.17; for RRIRQRPPRLPRPRPRPAYWPRP it is 0.128. As to RRIRGRPPRLPRPRPRPHCTPRP, the “shrunken log2 fold change” value was -0.0815. Consider RRIRPRPPRLPRPRPRPNDRPRP, for which the “shrunken log2 fold change” value was -0.0965. The figure for RRIRERPPRLPRPRPRPSVIPRP is -0.259; for RRIRMRPPRLPRPRPRPPCEPRP it is 1.11. The figure for RRIRLRPPRLPRPRPRPGFWPRP is 0.406; for RRIRSRPPRLPRPRPRPMTTPRP it is 0.572; for RRIRRRPPRLPRPRPRPNELPRP it is 0.457.

RRIRMRPPRLPRPRPRPWQPPRP: the “shrunken log2 fold change” value was -0.0454.

For the sequence RRIRGRPPRLPRPRPRPMFTPRP, the “shrunken log2 fold change” value came out at 0.522. The figure for RRIRWRPPRLPRPRPRPQTNPRP is 0.14; for RRIRARPPRLPRPRPRPHTIPRP it is -0.734. The figure for RRIRVRPPRLPRPRPRPDNFPRP is 0.0216; for RRIRHRPPRLPRPRPRPHLNPRP it is -0.00458; for RRIRDRPPRLPRPRPRPSQMPRP it is 0.0862. The figure for RRIRNRPPRLPRPRPRPNWDPRP is -0.163; for RRIRSRPPRLPRPRPRPGKPPRP it is 0.0657.

Consider RRIRDRPPRLPRPRPRPTMGPRP, for which the “shrunken log2 fold change” value worked out at 1.05. For the sequence RRIRGRPPRLPRPRPRPCMWPRP, the “shrunken log2 fold change” value came out at 0.29. The figure for RRIRGRPPRLPRPRPRPGIEPRP is 0.118; for RRIRERPPRLPRPRPRPFTTPRP it is -0.381. Regarding RRIRKRPPRLPRPRPRPEELPRP, the “shrunken log2 fold change” value came out at 2.77.

RRIRYRPPRLPRPRPRPTSCPRP: the “shrunken log2 fold change” value was -0.331. As for RRIRHRPPRLPRPRPRPWYKPRP, the “shrunken log2 fold change” value is -1.2.

As for RRIRTRPPRLPRPRPRPQAGPRP, the “shrunken log2 fold change” value turned out to be 0.107.

Regarding RRIRFRPPRLPRPRPRPTGEPRP, the “shrunken log2 fold change” value was found to be 0.583. The figure for RRIRLRPPRLPRPRPRPTHPPRP is 0.0349; for RRIRGRPPRLPRPRPRPVHFPRP it is 0.562; for RRIRIRPPRLPRPRPRPGVNPRP it is -0.319. As for RRIRLRPPRLPRPRPRPHFTPRP, the “shrunken log2 fold change” value is -0.355. As for RRIRCRPPRLPRPRPRPRMPPRP, the “shrunken log2 fold change” value was found to be 0.187.

Consider RRIRNRPPRLPRPRPRPKLQPRP, for which the “shrunken log2 fold change” value was 0.114. In the case of RRIRWRPPRLPRPRPRPTPQPRP, the “shrunken log2 fold change” value was 1.63. RRIRFRPPRLPRPRPRPPCCPRP: the “shrunken log2 fold change” value is 0.0896. Take RRIRGRPPRLPRPRPRPHKDPRP: the “shrunken log2 fold change” value worked out at 0.11. The figure for RRIRVRPPRLPRPRPRPPYTPRP is -0.268. Regarding RRIRERPPRLPRPRPRPMPKPRP, the “shrunken log2 fold change” value was found to be 0.153.

For the sequence RRIRYRPPRLPRPRPRPAENPRP, the “shrunken log2 fold change” value is -0.317.

Turning to RRIRPRPPRLPRPRPRPPFKPRP, the “shrunken log2 fold change” value is 0.0437. For RRIRHRPPRLPRPRPRPVHVPRP, the “shrunken log2 fold change” value is -0.16. RRIRRRPPRLPRPRPRPHADPRP: the “shrunken log2 fold change” value was determined as 0.573. The figure for RRIRVRPPRLPRPRPRPEEWPRP is 0.015; for RRIRGRPPRLPRPRPRPNHMPRP it is -0.0194; for RRIRCRPPRLPRPRPRPEGAPRP it is 0.766. The figure for RRIRWRPPRLPRPRPRPYANPRP is -0.399; for RRIRVRPPRLPRPRPRPSHRPRP it is -0.615. The figure for RRIRVRPPRLPRPRPRPQRMPRP is 0.0511; for RRIRLRPPRLPRPRPRPHAWPRP it is 0.62; for RRIRQRPPRLPRPRPRPIAIPRP it is 0.00329. As for RRIRDRPPRLPRPRPRPHLIPRP, the “shrunken log2 fold change” value is -0.0328.

Consider RRIRWRPPRLPRPRPRPDYDPRP, for which the “shrunken log2 fold change” value is -0.246. The figure for RRIRHRPPRLPRPRPRPWDEPRP is -0.175; for RRIRSRPPRLPRPRPRPWNVPRP it is -0.346; for RRIRTRPPRLPRPRPRPIEKPRP it is -0.478. RRIRGRPPRLPRPRPRPASKPRP: the “shrunken log2 fold change” value was 0.453. For RRIRRRPPRLPRPRPRPTAIPRP, the “shrunken log2 fold change” value came to 0.211.

In the case of RRIRNRPPRLPRPRPRPYFVPRP, the “shrunken log2 fold change” value was -0.312. The figure for RRIRHRPPRLPRPRPRPEMIPRP is 0.0986.

On to RRIRERPPRLPRPRPRPKTKPRP, for which the “shrunken log2 fold change” value was -0.00738. RRIRTRPPRLPRPRPRPYNFPRP: the “shrunken log2 fold change” value is 0.0438. As for RRIRERPPRLPRPRPRPDFCPRP, the “shrunken log2 fold change” value was -0.196. The figure for RRIRYRPPRLPRPRPRPTYRPRP is -0.27; for RRIRPRPPRLPRPRPRPYSRPRP it is -0.368; for RRIRPRPPRLPRPRPRPHCQPRP it is -0.0117. Turning to RRIRMRPPRLPRPRPRPTHNPRP, the “shrunken log2 fold change” value came out at 0.275.

Take RRIRDRPPRLPRPRPRPDNFPRP: the “shrunken log2 fold change” value was found to be 0.0301. The figure for RRIRVRPPRLPRPRPRPGVFPRP is 0.117. In the case of RRIRGRPPRLPRPRPRPLFPPRP, the “shrunken log2 fold change” value was determined as 0.406. The figure for RRIRFRPPRLPRPRPRPHTLPRP is -0.62. The figure for RRIRPRPPRLPRPRPRPHKTPRP is -0.0296; for RRIRFRPPRLPRPRPRPNNKPRP it is -0.646.

As for RRIRIRPPRLPRPRPRPPVDPRP, the “shrunken log2 fold change” value was -0.111. The figure for RRIRSRPPRLPRPRPRPMFQPRP is 0.0483; for RRIRFRPPRLPRPRPRPGWIPRP it is 0.0799. In the case of RRIRIRPPRLPRPRPRPNFGPRP, the “shrunken log2 fold change” value is -0.0272. The figure for RRIRNRPPRLPRPRPRPYQHPRP is -0.549; for RRIRSRPPRLPRPRPRPEICPRP it is 0.0531; for RRIRTRPPRLPRPRPRPYCPPRP it is -0.821. For the sequence RRIRIRPPRLPRPRPRPMWWPRP, the “shrunken log2 fold change” value turned out to be 0.141.

On to RRIRLRPPRLPRPRPRPPLIPRP, for which the “shrunken log2 fold change” value is -0.258. The figure for RRIRCRPPRLPRPRPRPWKPPRP is 0.0199. Take RRIRHRPPRLPRPRPRPQKWPRP: the “shrunken log2 fold change” value was -0.875. The figure for RRIRQRPPRLPRPRPRPPKGPRP is 0.021. The figure for RRIRHRPPRLPRPRPRPKTEPRP is -0.0292; for RRIRLRPPRLPRPRPRPTDHPRP it is -0.323; for RRIRWRPPRLPRPRPRPHEPPRP it is 0.0371.

Consider RRIRWRPPRLPRPRPRPSYIPRP, for which the “shrunken log2 fold change” value was -0.715. The figure for RRIRVRPPRLPRPRPRPAAFPRP is 0.227; for RRIRNRPPRLPRPRPRPNFEPRP it is -0.0924. The figure for RRIRTRPPRLPRPRPRPGHKPRP is -0.106; for RRIRFRPPRLPRPRPRPFSNPRP it is 0.0406; for RRIRQRPPRLPRPRPRPSPHPRP it is -0.511. The figure for RRIRHRPPRLPRPRPRPACYPRP is -0.226. For RRIRVRPPRLPRPRPRPKFKPRP, the “shrunken log2 fold change” value is -0.2. For RRIRSRPPRLPRPRPRPFADPRP, the “shrunken log2 fold change” value is -0.0303. The figure for RRIRARPPRLPRPRPRPSICPRP is 0.154; for RRIRCRPPRLPRPRPRPDHSPRP it is -0.184; for RRIRKRPPRLPRPRPRPEYAPRP it is -0.000279. For RRIRSRPPRLPRPRPRPCTDPRP, the “shrunken log2 fold change” value was -0.11. The figure for RRIRGRPPRLPRPRPRPSVTPRP is 0.708; for RRIRMRPPRLPRPRPRPREDPRP it is 0.0544.

As to RRIRMRPPRLPRPRPRPSIHPRP, the “shrunken log2 fold change” value is -0.823. The figure for RRIRRRPPRLPRPRPRPGIQPRP is 0.0906. The figure for RRIRYRPPRLPRPRPRPKIKPRP is -0.583; for RRIRIRPPRLPRPRPRPEVYPRP it is -0.0738; for RRIRWRPPRLPRPRPRPCEDPRP it is 0.115.
